Assay results published in article PMC10001230, “A Role for the V0 Sector of the V-ATPase in Neuroexocytosis: Exogenous V0d Blocks Complexin and SNARE Interactions with V0c” (Cells, 2023).
Blank lines part the entries; values can stand above or below the binder they belong to.

B2: His6-T7-HSV tagged full-length V0c-subunit (natural protein, rat, UniProt P63081 1-155, looked up)
chain: MADIKNNPEYSSFFGVMGASSAMVFSAMGAAYGTAKSGTGIAAMSVMRPELIMKSIIPVVMAGIIAIYGLVVAVLIANSLTDGITLYRSFLQLGAGLSVGLSGLAAGFAIGIVGDAGVRGTAQQPRLFVGMILILIFAEVLGLYGLIVALILSTK
notes: V-ATPase V0 sector subunit c (V0c), full length; also called HSV-V0c; 6His-V0c; source: E. coli OverExpress C43(DE3), membranes solubilized in 2% FosCholine-12, purified (Ni-NTA)
B3: Complexin1-GST (natural protein, rat, UniProt P63041 1-134, looked up)
chain: MEFVMKQALGGATKDMGKMLGGDEEKDPDAAKKEEERQEALRQAEEERKAKYAKMEAEREVMRQGIRDKYGIKKKEEREAEAQAAMEANSEGSLTRPKKAIPPGCGDEPEEEDESILDTVIKYLPGPLQDMFKK
notes: Legends call it GST-complexin although GST stands downstream of complexin in the construct; also called GST-complexin; immobilized complexin; source: E. coli BL21, purified; not shown: GST, C-terminal, kept
B5: Full-length V0c-L3.4s mutant (V0c with scrambled loop 3.4) (natural protein, rat, UniProt P63081 1-155, looked up)
chain: MADIKNNPEYSSFFGVMGASSAMVFSAMGAAYGTAKSGTGIAAMSVMRPELIMKSIIPVVMAGIIAIYGLVVAVLIANSLTDGITLYRSFLQLGAGLSVGLSGLAAGFAIGIVGDAGQATVQPLGRRFVGMILILIFAEVLGLYGLIVALILSTK
notes: Cloned in pET28 (EcoR1/Sal1); source: E. coli OverExpress C43(DE3), purified (Ni-NTA)

What was measured:
Conditions in all cases: both partners purified
Complexin1-GST = biological target: B3; experiment: SPR; competition: V0c 100 nM preincubated or not with L1.2 or L3.4 peptides (10 µM) and injected on immobilized GST-complexin; 25 °C
GST-V0d1 [1] = biological target: T1, GST-V0d1 (rat, UniProt Q5M7T6 1-351); experiment: SPR; competition: V0c 50 nM injected over immobilized GST-V0d1 in the presence of an excess of GST or GST-complexin, or of L1.2 or L3.4 peptides; GST flow cell subtracted
T1 construct: rat V-ATPase V0 sector subunit d1 (V0d1), amplified from an adult rat brain cDNA library and inserted EcoR1/Sal1 into pGEX-5x-1; the forward primer begins at the codon after the first methionine (SFFPEL), the reverse primer ends at the stop codon; also called immobilized V0d1; source: E. coli BL21, purified (Glutathione-Sepharose)
T1 sequence (Q5M7T6 entry or part of it): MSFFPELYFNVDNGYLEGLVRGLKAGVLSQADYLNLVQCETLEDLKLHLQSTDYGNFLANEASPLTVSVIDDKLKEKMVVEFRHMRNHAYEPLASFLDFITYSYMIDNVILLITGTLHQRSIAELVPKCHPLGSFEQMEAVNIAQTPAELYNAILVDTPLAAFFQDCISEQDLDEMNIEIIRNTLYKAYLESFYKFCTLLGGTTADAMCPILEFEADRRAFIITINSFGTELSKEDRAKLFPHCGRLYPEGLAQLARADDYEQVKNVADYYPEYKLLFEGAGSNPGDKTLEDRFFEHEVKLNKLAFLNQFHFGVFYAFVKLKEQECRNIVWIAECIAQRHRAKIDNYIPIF

GST-V0d1 [2] = biological target: T1, GST-V0d1; experiment: ELISA; V0c, VAMP2, t-SNARE, complexin, trimeric SNARE complex with or without complexin immobilized; GST-V0d1 or GST 50 nM; detected with anti-GST; GST binding subtracted
[3] = biological target: B2; experiment: SPR; Complexin1-GST and GST amine-coupled on the chip; V0c, V0c L1.2s or V0c L3.4s 50 nM injected for 2 min; 25 °C, HBS with or without 0.2% CHAPS; GST signal subtracted
[4] = biological target: B5; experiment: as above
[5] = biological target: B2; experiment: ELISA; His-tagged complexin immobilized (1 µg/well); V0c 20 nM with or without VAMP2 100 nM, overnight 4 °C in 50 mM Tris-HCl pH 7.5, 150 mM NaCl, 3% BSA, 0.1% Triton X-100; detected with anti-HSV
GST-V0d1 [6] = biological target: T1, GST-V0d1; experiment: SPR; GST-V0d1 and GST amine-coupled on consecutive flow cells; V0c (50 nM, with or without 2 µM soluble GST-V0d1), V0c L1.2s or V0c L3.4s injected; 25 °C; GST signal subtracted

binding result (Complexin1-GST): binds
binding result (GST-V0d1 [1]): binds
B1: V0c L1.2 peptide (aa 35-KSGTGIAAMSVMRPELIMKS-54) (peptide)
peptide: KSGTGIAAMSVMRPELIMKS
notes: V0c cytosolic loop 1.2; printed as aa 35-54; also called loop 1.2 peptide; free L1.2 peptide; source: synthetic peptide (Genecust)

Binder: B2
binding result (GST-V0d1 [2]): binds

Binder: B3
binding result [3]: binds
binding result [4]: binds

binding result [5]: binds
B4: Complexin1-His (natural protein, rat, UniProt P63041 1-134, looked up)
chain: MEFVMKQALGGATKDMGKMLGGDEEKDPDAAKKEEERQEALRQAEEERKAKYAKMEAEREVMRQGIRDKYGIKKKEEREAEAQAAMEANSEGSLTRPKKAIPPGCGDEPEEEDESILDTVIKYLPGPLQDMFKK
notes: also called His-tagged complexin; source: E. coli BL21, purified

Binder: B5
binding result (GST-V0d1 [6]): binds
